Measured values reported in patent publication US20230151108A1 (UCB, published 2023).
Blank lines part the entries; values can stand above or below the binder they belong to.

What was measured:
[1] = target: T1, CD137 peptide P1 (CRD1)-human Fc fusion protein (human, UniProt Q07011 25-68); assay: BLI (Octet RED384), CD137 CRD peptide-Fc on AHC biosensors, Fab-Y at 10 µg/mL; CRD inferred from the peptide binding profile
T1 construct: Made in Expi293F cells and used as conditioned medium, captured on anti-hIgG Fc biosensors; not shown: human Fc tag at the C-terminus
T1 chain: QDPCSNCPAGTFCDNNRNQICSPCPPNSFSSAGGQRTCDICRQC
Description: DNA sequences coding for each peptide (as shown in Table 7) were ordered from Twist Bioscience in a mammalian expression vector with a human Fc tag at the C-terminus. Each plasmid was used to transfect Expi293F™ cells (Gibcon™) to generate the different peptide-human Fc fusion proteins. For transfections, 850 μl of Expi293F™ cells ([…]) were plated in 48-well blocks and transfected with 3 μg of DNA using the ExpiFectamine™ 293 Transfection Kit (ThermoFisher) following the manufacturer's instructions. Cells were incubated in a 37° C., 5% CO₂ environment with shaking at 225 rpm. After 6 days, cells were pelleted (1000×g, 10 min) and the conditioned medias containing each of the peptides were harvested, quantitated and diluted to 1.7 μg/mL in Expi293™ Expression Medium (ThermoFisher). The conditioned medias were used for binding assessment to our panel of antibodies using the Octet® RED384 System (FortéBio) at room temperature with anti-hIgG Fc Capture (AHC) Biosensors (FortéBio). Firstly, an array of 8 sensors was dipped in kinetics buffer (PBS, 0.1% BSA, 0.02% Tween 20) for 180 seconds to provide a baseline signal. […]

[2] = target: T2, human CD9, full-length, expressed on cells (human, UniProt P21926 2-228); assay: binding to cells expressing full-length CD9 (selection; method not described)
T2 construct: also called Tetraspanin-29
T2 sequence: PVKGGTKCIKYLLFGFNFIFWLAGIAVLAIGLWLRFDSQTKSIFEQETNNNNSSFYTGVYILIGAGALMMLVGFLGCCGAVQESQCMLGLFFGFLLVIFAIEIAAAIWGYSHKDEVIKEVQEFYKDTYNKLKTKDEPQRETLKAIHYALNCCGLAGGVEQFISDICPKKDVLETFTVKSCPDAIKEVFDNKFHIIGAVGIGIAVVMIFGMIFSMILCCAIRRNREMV

binding result [1]: binds
B1: anti-CD137 Fab-Y 8475 (Fab, V domains shown)
VH: QSVEESGGRLVTPGTPLTLTCTVSGFSLSTYAMSWVRQAPGKGLEWIGAIWSGGTTDYTSWAKGRFTISKASTTVDLKITSPTTEDTATYFCVRMAVIFNAYTFDSWGPGTLVTVSS
VL: AYDMTQTPSSVSAAVGGTVTIKCQASQNIYSYLAWYQQKPGQRPKLLIYGASTLASGVPSRFKGSGSGTDFTLTISDLECDDAATYYCQQGHSSGNVGNNVFGGGTEVVVK
notes: Tested as Fab-Y: a Fab whose CH1 is joined by a peptide linker to the GCN4 peptide (clone 7P14P); also called VR8475

binding result [2]: binds
B2: anti-CD9 Fab-Y 7272 (Fab, V domains shown)
VH: QSLEESGGRLVTPGTPLTLTCTVSGFSLSSYAMGWVRQAPGKGLEWIGAIGSITATGYARWAKGRFSISKTSTTVDLKMTSPTTEDTATYFCAREIYVGSAYAFDIWGPGTLVTVSS
VL: AYDMTQTPASVEVAVGDTVTIKCQASQSISNYLAWYQQKPGQPPKLLIYLASTLASGVPSRFKGSGSGTEFTLTISDLECADAATYYCQQGYIDNVNKGFGGGTEVVVK
notes: Tested as Fab-Y: a Fab whose CH1 is joined by a peptide linker to the GCN4 peptide (clone 7P14P); also called VR7272
